The record followed here is PMC3114554.

Targets include CFP-tagged KCNQ2 (human); CFP-tagged KCNQ3 (human) (UniProt O43525); CFP-tagged KCNQ4 (human) (UniProt P56696).
Experiment in all cases: FRET or BRET
(In general: BRET reads energy transfer from a luciferase to a nearby fluorophore.)

UniProt O43525, sequence (O43525 whole entry): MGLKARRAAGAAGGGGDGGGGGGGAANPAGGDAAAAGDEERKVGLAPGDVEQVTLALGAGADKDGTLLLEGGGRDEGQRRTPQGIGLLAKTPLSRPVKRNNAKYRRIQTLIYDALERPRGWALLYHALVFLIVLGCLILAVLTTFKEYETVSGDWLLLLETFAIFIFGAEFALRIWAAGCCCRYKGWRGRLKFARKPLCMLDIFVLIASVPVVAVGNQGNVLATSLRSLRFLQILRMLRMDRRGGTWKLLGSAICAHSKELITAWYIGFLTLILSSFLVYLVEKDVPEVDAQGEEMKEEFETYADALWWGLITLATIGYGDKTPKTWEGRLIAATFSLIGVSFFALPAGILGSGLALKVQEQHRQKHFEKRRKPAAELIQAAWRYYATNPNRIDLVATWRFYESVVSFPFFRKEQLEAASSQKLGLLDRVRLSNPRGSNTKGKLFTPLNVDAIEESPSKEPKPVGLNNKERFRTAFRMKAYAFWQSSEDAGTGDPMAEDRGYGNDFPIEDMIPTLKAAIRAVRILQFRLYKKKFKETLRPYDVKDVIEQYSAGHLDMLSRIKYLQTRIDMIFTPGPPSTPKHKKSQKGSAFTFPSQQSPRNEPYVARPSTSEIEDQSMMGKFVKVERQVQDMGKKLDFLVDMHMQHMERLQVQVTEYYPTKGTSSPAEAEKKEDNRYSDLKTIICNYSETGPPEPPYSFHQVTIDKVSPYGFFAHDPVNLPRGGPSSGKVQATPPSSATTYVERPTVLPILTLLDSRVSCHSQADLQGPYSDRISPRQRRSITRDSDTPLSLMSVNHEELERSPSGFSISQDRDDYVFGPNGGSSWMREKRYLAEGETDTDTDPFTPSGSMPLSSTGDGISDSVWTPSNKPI
UniProt P56696, sequence (P56696 whole entry): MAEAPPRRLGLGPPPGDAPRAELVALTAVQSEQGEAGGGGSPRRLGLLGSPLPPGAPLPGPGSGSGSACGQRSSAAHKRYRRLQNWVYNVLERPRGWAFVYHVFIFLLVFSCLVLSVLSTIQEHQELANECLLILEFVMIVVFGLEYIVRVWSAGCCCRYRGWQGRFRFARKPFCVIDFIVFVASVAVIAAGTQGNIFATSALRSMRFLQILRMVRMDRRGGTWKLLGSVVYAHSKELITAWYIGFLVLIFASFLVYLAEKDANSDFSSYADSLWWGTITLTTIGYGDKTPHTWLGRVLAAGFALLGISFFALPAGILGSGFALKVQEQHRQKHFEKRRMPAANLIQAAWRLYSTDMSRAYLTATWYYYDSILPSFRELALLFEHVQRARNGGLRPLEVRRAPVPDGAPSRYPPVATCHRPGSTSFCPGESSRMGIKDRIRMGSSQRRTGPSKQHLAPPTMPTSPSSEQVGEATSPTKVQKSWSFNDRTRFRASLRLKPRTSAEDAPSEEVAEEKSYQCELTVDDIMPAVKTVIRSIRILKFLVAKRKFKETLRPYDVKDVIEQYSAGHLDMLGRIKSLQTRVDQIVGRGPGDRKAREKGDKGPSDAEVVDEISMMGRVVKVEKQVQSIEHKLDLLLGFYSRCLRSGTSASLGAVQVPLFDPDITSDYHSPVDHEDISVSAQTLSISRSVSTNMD

As for “YFP-tagged ΔA-AKAP79 (from UniProt P24588 1-427) (natural protein)”, the FRET efficiency with CFP-tagged KCNQ2 (human) turned out to be 17%; in the assay with CFP-tagged KCNQ3 (human), 13%; in the assay with CFP-tagged KCNQ4 (human), 16%.
